Laboratory results published in patent US7999069B2, “EphB receptor-binding peptides” (Sanford-Burnham Medical Research Institute, priority 2005, dated 2011).
Values belong to the molecule of their own block, whether it stands above or below them.

Legend:
EphB4 [1] = molecular target: T1, EphB4 (Homo sapiens, UniProt P54760); experiment: Peptide pull-down of EphB4 from MCF7 or transfected 293T cells; format: binding
T1 construct: MCF-7 human breast cancer cells, which endogenously express EphB4; endogenous in cells; host or cells: MCF7
T1 sequence (P54760 16-987): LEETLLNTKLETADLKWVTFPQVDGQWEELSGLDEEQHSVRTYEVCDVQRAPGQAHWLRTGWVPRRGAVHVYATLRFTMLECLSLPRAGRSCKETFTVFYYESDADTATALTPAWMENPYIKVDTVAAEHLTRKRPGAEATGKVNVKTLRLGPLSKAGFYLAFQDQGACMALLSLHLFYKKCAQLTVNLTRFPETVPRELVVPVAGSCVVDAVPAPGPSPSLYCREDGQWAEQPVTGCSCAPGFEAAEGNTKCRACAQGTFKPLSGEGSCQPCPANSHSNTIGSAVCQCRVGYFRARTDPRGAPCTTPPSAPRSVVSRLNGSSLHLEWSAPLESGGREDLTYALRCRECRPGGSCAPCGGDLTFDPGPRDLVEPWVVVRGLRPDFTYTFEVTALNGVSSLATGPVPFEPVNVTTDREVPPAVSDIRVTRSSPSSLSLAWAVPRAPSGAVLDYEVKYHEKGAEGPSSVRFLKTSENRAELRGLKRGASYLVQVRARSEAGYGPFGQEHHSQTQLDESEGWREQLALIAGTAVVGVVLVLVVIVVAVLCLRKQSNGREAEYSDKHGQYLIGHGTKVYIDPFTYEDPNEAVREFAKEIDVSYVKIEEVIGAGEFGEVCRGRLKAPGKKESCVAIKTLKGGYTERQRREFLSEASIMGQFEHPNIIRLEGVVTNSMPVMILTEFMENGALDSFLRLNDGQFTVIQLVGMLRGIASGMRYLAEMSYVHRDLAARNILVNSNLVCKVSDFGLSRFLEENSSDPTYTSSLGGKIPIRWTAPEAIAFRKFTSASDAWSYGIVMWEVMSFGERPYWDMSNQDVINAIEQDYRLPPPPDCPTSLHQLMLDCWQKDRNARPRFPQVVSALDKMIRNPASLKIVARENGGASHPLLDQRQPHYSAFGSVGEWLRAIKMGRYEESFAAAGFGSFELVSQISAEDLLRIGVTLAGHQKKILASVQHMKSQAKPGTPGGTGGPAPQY
Experimental: (§1) The ability of the peptides to bind in a stable manner, which is important for both targeting and competitive inhibition, was tested in pull-down experiments. For peptide pull-down experiments, cells in 60 cm plates at 70% confluency or adult mouse brain tissue were solubilized in pull-down buffer (50 mM HEPES pH 7.5, 150 mM NaCl, 10% glycerol, 1% Triton-X100, 5 mM KCl and 1 mM EDTA). Three μg of biotinylated peptide were incubated for 45-90 min with 5 μl streptavidin agarose beads (Sigma), unbound peptide was washed away, and the beads were incubated with the cell lysates for 45-90 min. Proteins bound to the beads were separated by SDS-polyacrylamide gel electrophoresis and probed by immunoblotting with EphB1, EphB2, or EphB4 antibodies. The EphB1 antibody (Santa Cruz) was detected with a secondary anti-goat IgG peroxidase-conjugated antibody (BioRad Laboratories). The EphB2 and EphB4 antibodies were affinity-purified polyclonal antibodies to GST fusion proteins containing approximately 100 amino acids from the carboxy-terminal tails of the EphB2 or EphB4 receptors (Noren, N. K. et al. 2004 PNAS USA 101:5583-5588; Holash, J. A. & Pasquale, E. B. 1995 Devel Biol 172:683-693) and were detected with a secondary anti-rabbit IgG peroxidase-conjugated antibody (Amersham Biosciences).
Endogenous EphB receptors were isolated from lysates of mouse brain or cultured cells using the EWLS, SNEW, and TNYL peptides immobilized on streptavidin beads (FIGS. 5B, F, G and H). […] RTVA was used as a control peptide for the EphB4 pull downs. The NPVI peptide could isolate EphB4 from transfected cells but not endogenous EphB4 from MCF7 cells, which is present at lower levels (FIGS. 5B, F, G and H). […] EphB receptors were not detected bound to the beads coated with the other peptides.

EphB4 [2] = molecular target: T2, EphB4 (Homo sapiens, UniProt P54760); experiment: Peptide competition of phage binding to EphB4 ectodomain; settings: concentration-dependent
T2 construct: panned on the ectodomains of EphB1, EphB2, or EphB4 fused to human Fc
T2 sequence (P54760 16-539 limits assumed): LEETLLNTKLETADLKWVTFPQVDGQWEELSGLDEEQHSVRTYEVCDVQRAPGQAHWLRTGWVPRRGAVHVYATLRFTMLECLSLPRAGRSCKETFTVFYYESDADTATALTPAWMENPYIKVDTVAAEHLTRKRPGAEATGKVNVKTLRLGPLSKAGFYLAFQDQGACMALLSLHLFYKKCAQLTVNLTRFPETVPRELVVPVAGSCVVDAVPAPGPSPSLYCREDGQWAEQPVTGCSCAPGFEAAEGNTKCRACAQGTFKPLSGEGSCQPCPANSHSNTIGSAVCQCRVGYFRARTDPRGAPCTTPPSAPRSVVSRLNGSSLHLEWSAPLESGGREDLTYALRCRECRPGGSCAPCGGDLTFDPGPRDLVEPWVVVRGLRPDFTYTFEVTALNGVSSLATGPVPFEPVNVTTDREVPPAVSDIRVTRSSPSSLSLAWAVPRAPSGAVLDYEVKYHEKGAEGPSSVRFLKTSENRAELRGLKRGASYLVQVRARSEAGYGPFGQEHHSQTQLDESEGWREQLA
Experimental: To measure peptide competition of phage binding to EphB receptors, Ni-NTA wells coated with Eph ectodomain Fc were incubated for 30 min at room temperature with various peptide concentrations in binding buffer (100 μl/well). Concentrated stocks of phage clones diluted between 1:500 and 1:10,000 in binding buffer were then added to the wells for a 1 hr at room temperature. Wells were washed and bound phage were detected using the anti-M13 antibody. A biotinylated control peptide with sequence unrelated to the sequences of the Eph-binding peptides ([…], SEQ ID NO: 40) was used as a negative control in some of the experiments, as indicated in the figure legends.
[…]. The SNEW peptide at 25 μM inhibited EphB2 binding of most phage clones isolated by panning on EphB2 (FIGS. 2E and G). The only exceptions were the IHWP, DHRWV and WHWT clones. However, binding of these clones was inhibited by 50 μM SNEW peptide, particularly when the phage concentration was halved. […] Bound phage were detected using anti-M13 phage antibody coupled to HRP and phage binding in the presence of peptide was normalized to phage binding in the absence of peptide. Error bars indicate standard deviation from duplicate measurements, and were calculated taking into account propagation of errors.

EphB receptors = experiment: Peptide pull-down of endogenous EphB receptors from lysates; format: binding; settings: peptide on streptavidin beads; mouse brain or cultured cell lysates
Experimental: as §1, with “Biosciences). […]” for “Biosciences).”

COS cells = settings: 400 μM peptide; […] ephrin-B1 Fc
Experimental: Upon treatment with 1.5 μg/ml ephrin-B1 Fc, COS cells retract at the periphery, leaving behind spike-like protrusions. […] COS cells were plated onto glass coverslips and sixteen hours later were starved for three hours in DME with 0.5% fetal calf serum. The cells were then incubated for 20 min with 400 μM SNEW or control peptide in PBS, or an equal volume of PBS as a control, and then either left untreated or stimulated for 10 min with 1.5 μg/ml ephrinB1-Fc (R&D Systems, Inc.). […] Control peptide: RTVA.

EphB2 = molecular target: T3, EphB2 (Homo sapiens, UniProt P29323); settings: read-out: KD for monovalent EphB2-ephrin-B2 interaction; cited from earlier work
T3 sequence (P29323 19-1055): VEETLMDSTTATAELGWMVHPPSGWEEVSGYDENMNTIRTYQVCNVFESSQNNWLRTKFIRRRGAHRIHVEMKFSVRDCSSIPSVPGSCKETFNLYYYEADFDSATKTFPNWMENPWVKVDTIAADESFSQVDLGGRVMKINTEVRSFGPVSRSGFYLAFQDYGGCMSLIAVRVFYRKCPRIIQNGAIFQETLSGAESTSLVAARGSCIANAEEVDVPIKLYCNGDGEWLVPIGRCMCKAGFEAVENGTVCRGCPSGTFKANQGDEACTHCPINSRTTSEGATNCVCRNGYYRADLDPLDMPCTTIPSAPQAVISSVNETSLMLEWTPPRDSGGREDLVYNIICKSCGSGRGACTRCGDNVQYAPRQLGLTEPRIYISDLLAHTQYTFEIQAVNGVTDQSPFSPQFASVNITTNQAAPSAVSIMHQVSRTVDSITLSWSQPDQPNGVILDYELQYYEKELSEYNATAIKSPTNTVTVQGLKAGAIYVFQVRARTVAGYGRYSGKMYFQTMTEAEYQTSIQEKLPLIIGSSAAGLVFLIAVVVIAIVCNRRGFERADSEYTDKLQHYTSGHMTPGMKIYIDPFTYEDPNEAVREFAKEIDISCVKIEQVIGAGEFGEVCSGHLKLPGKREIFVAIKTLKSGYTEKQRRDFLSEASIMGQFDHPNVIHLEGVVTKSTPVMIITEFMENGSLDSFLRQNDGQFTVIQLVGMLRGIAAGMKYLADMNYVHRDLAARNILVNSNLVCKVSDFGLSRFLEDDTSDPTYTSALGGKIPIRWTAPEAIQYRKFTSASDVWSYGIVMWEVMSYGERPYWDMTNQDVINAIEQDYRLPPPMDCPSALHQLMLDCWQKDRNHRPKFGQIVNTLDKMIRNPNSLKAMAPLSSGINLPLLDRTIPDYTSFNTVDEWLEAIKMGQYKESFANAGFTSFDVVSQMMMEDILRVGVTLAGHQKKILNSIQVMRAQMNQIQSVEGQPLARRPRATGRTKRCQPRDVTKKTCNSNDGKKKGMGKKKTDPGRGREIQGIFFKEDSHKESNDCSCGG

EphA3 = molecular target: T4, EphA3 (Homo sapiens, UniProt P29320); settings: read-out: KD for monovalent EphA3-ephrin-A5 interaction; cited from earlier work
T4 sequence (P29320 21-983): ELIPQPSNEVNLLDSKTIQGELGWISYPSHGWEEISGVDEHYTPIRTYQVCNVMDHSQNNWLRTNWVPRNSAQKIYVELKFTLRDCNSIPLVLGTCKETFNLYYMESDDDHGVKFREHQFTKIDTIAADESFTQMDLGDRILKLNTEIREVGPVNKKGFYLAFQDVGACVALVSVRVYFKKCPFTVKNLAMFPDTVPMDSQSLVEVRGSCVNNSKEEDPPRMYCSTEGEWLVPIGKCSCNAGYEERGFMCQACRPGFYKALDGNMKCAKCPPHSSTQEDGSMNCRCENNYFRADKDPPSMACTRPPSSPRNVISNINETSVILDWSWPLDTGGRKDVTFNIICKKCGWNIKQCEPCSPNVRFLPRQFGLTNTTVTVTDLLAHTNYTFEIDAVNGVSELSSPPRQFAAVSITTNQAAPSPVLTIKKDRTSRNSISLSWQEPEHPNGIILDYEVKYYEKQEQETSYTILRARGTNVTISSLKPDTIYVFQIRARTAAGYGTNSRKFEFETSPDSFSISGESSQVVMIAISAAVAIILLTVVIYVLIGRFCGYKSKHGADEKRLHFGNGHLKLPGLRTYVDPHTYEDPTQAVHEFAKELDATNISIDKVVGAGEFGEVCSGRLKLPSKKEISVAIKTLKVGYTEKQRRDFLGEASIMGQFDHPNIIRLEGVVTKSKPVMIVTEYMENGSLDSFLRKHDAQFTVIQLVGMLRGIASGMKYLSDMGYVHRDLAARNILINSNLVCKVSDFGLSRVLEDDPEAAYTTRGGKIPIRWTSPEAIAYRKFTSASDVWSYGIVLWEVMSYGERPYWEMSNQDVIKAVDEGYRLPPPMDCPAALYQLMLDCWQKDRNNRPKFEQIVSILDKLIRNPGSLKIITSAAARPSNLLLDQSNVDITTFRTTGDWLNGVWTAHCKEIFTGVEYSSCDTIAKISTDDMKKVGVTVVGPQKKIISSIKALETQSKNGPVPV

- Pull-down of EphB4, peptides used alone or together (EphB4 [1]): ineffective
- Inhibition of DALN phage binding to immobilized EphB4 ectodomain (EphB4 [2]): inhibited binding of DALN phage
Molecule: SEQ ID NO 20: 12-mer from EphB4 panning; printed DAL[image]D[image]L[image]FRPW (DALNDWLLFRPW)

Molecule: CC[C@H](C)[C@H](NC(=O)[C@H](Cc1c[nH]c2ccccc12)NC(=O)[C@H](CCC(=O)O)NC(=O)[C@H](CC(N)=O)NC(=O)[C@@H](N)CO)C(=O)N[C@@H](CCC(N)=O)C(=O)N1CCC[C@H]1C(=O)N[C@@H](CCCNC(=N)N)C(=O)N[C@@H](CC(C)C)C(=O)N1CCC[C@H]1C(=O)N[C@@H](CCC(N)=O)C(=O)N[C@@H](Cc1c[nH]cn1)C(=O)O [SEQ ID NO 18]
- Stable binding of EphB receptors in pull-down (EphB receptors): stably bind EphB receptors
- Inhibition of COS cell retraction phenotype (COS cells): inhibited the COS cell retraction phenotype

B1: ephrin-B2: ephrin ligand; monovalent interaction with EphB2, literature KD (protein, UniProt P52799 28-333, looked up)
Ephrin-B2: IVLEPIYWNSSNSKFLPGQGLVLYPQIGDKLDIICPKVDSKTVGQYEYYKVYMVDKDQADRCTIKKENTPLLNCAKPDQDIKFTIKFQEFSPNLWGLEFQKNKDYYIISTSNGSLEGLDNQEGGVCQTRAMKILMKVGQDASSAGSTRNKDPTRRPELEAGTNGRSSTTSPFVKPNPGSSTDGNSAGHSGNNILGSEVALFAGIASGCIIFIVIIITLVVLLLKYRRRHRKHSPQHTTTLSLSTLATPKRSGNNNGSEPSDIIIPLRTADSVFCPHYEKVSGDYGHPVYIVQEMPPQSPANIYYKV
- Kd (EphB2): 16 nM

B2: ephrin-A5: ephrin ligand; monovalent interaction with EphA3, literature KD (protein, UniProt P52803 21-203, looked up)
Ephrin-A5: QDPGSKAVADRYAVYWNSSNPRFQRGDYHIDVCINDYLDVFCPHYEDSVPEDKTERYVLYMVNFDGYSACDHTSKGFKRWECNRPHSPNGPLKFSEKFQLFTPFSLGFEFRPGREYFYISSAIPDNGRRSCLKLKVFVRPTNSCMKTIGVHDRVFDVNDKVENSLEPADDTVHESAEPSRGEN
- Kd (EphA3): 10 to 12 nM
